2 molecules from article PMC13649712, “Role of PER-WDR5 interactions in the mammalian circadian clock” (Nature Communications, 2026) can be followed below.

The target in the assay is preformed PER1 1013-1291/WDR5 22-334 complex (mouse, UniProt O35973 1013-1291; P61965 22-334). As to the kind of experiment: SEC; PER1 1013-1291, CRY1 1-496 or CRY2 1-512 and WDR5 22-334: equimolar mixture (60 min, 4 °C) or PER1/WDR5 complex pre-formed overnight and then equimolar CRY added for 60 min; dimeric complexes run for comparison; S200 10/300; 25 mM HEPES pH 7.5, 300 mM NaCl, 5% glycerol, 1 mM DTT. Particulars: both partners purified. (In general: SEC sorts molecules by how far they enter the pores of the column.)

B1: mouse CRY1 1-496 (PHR) (domain or fragment)
chain: MGVNAVHWFRKGLRLHDNPALKECIQGADTIRCVYILDPWFAGSSNVGINRWRFLLQCLEDLDANLRKLNSRLFVIRGQPADVFPRLFKEWNITKLSIEYDSEPFGKERDAAIKKLATEAGVEVIVRISHTLYDLDKIIELNGGQPPLTYKRFQTLVSKMEPLEMPADTITSDVIGKCMTPLSDDHDEKYGVPSLEELGFDTDGLSSAVWPGGETEALTRLERHLERKAWVANFERPRMNANSLLASPTGLSPYLRFGCLSCRLFYFKLTDLYKKVKKNSSPPLSLYGQLLWREFFYTAATNNPRFDKMEGNPICVQIPWDKNPEALAKWAEGRTGFPWIDAIMTQLRQEGWIHHLARHAVACFLTRGDLWISWEEGMKVFEELLLDADWSINAGSWMWLSCSSFFQQFFHCYCPVGFGRRTDPNGDYIRRYLPVLRGFPAKYIYDPWNAPEGIQKVAKCLIGVNYPKPMVNHAEASRLNIERMKQIYQQLSRYRG
notes: pCoofy27; tag-free after cleavage; also called CRY1-PHR
Turning to B1, the binding result was “binds”.

B2: mouse CRY2-PHR (1-512) (domain or fragment)
chain: MAAAAVVAATVPAQSMGADGASSVHWFRKGLRLHDNPALLAAVRGARCVRCVYILDPWFAASSSVGINRWRFLLQSLEDLDTSLRKLNSRLFVVRGQPADVFPRLFKEWGVTRLTFEYDSEPFGKERDAAIMKMAKEAGVEVVTENSHTLYDLDRIIELNGQKPPLTYKRFQALISRMELPKKPAVAVSSQQMESCRAEIQENHDDTYGVPSLEELGFPTEGLGPAVWQGGETEALARLDKHLERKAWVANYERPRMNANSLLASPTGLSPYLRFGCLSCRLFYYRLWDLYKKVKRNSTPPLSLFGQLLWREFFYTAATNNPRFDRMEGNPICIQIPWDRNPEALAKWAEGKTGFPWIDAIMTQLRQEGWIHHLARHAVACFLTRGDLWVSWESGVRVFDELLLDADFSVNAGSWMWLSCSAFFQQFFHCYCPVGFGRRTDPSGDYIRRYLPKLKGFPSRYIYEPWNAPESVQKAAKCIIGVDYPRPIVNHAETSRLNIERMKQIYQQLSRY
notes: Cryptochrome-2 (CRY2), mouse, photolyase homology region, residues 1-512; pCoofy27; tag-free after cleavage; also called CRY2 1-512
Turning to B2, the binding result is recorded as “binds”.
